Literature values in patent publication US11340238B2 (Biocon Limited, priority 2015, dated 2022).

Settings: Type 1 Diabetes Mellitus patients on RHI therapy

recombinant Human insulin [RHI]
Cmax: ~100 mU/L
